The results in this text go back to patent publication US20200010570A1 (SICHUAN KELUN BIOTECH BIOPHARMACEUTICAL, published 2020).

Experiment [1] concerns the target T1, recombinant protein PDL-1ECD-mFc (human, UniProt Q9NZQ7 19-238).
T1 construct: also called PDL-1-mFc; human PDL-1 (coated antigen); not shown: a TEV site before it is implied by the TEV digestion of
As to the kind of experiment: competitive ELISA, method 'described in Example 13'; column 'Affinity by competitive ELISA (nM)'; competitor not given.

Experiment [2] concerns the target T2, PDL-1 on the cell surface (293T cells expressing PDL-1) (human, UniProt Q9NZQ7 19-290). As to the kind of experiment: FACS, cells expressing PDL-1, method of Example 8; column 'Cell affinity by FACS'. In general terms: A flow cytometer gives signals particle by particle.
The target in experiment [3] is T2, PDL-1 on the cell surface (293T cells …). As to the kind of experiment: FACS, cells expressing PDL-1, method of Example 8.
For experiment [4], the target named is T1, recombinant protein PDL-1ECD-mFc. As to the kind of experiment: indirect ELISA, method of Example 9; column 'Affinity by ELISA (nM)'. (In general: In an ELISA, binding on a coated surface is turned into a signal by an enzyme label.)
Experiment [5] addresses T3, PDL-1 antigen (PDL-1-mFc digested with TEV protease) (human, UniProt Q9NZQ7 19-238).
T3 construct: the whole entry is named
As to the kind of experiment: Fortebio, PDL-1 on sensor, antibody then PD-1 10 µg/ml; competitor PD-1.

T1 sequence (Q9NZQ7 19-238): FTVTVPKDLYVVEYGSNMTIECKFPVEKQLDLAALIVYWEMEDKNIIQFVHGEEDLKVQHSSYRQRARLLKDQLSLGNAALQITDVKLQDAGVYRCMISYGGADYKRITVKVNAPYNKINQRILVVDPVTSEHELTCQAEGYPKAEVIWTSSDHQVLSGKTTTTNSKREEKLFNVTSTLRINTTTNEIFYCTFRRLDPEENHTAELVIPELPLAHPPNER
T2 sequence (Q9NZQ7 19-290 limits assumed): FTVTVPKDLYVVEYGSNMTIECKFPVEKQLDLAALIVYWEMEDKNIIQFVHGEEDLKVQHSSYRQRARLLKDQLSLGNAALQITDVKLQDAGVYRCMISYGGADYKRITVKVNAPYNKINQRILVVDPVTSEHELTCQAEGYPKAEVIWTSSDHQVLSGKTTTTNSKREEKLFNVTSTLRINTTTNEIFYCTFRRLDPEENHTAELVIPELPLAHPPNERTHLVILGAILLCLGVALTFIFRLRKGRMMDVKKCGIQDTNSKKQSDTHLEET
T3 sequence (Q9NZQ7 19-238 limits assumed): as the sequence (Q9NZQ7 19-238) above

B1: monoclonal antibody 5F10 (antibody, V domains shown)
VH: EVQLQQSGAELVKPGASVKLSCTASGFDIKDTYIHWVKQRPEQGLEWIGRIDPADGNTRYDPKFQDKTTITTDTSSNTAHLQLSSLTSEDTAVYYCARGLGAWFASWGQGTLVTVSA
VL: DIQMTQTTSSLSASLGDRVTISCRASQDITNSLNWYQQKPDGTVKLLIHYTSRLHSGVPSRFSGSGSGTDYSLTISNLEQEDIATYFCQQGHTLPPTFGGGTKLEI
notes: Murine antibody from a hybridoma
For B1, the EC50 in experiment [1] was determined as 0.838 nM; in experiment [2], 1.48 nM; in experiment [4] it was 0.029 nM. The molecule further returned a positive % in experiment [3] of 60.3%.

B2: monoclonal antibody 9F6 (antibody, V domains shown)
VH: EVQLQQSGAELVKPGASVKLSCTASGFNIKDTYMYWVKQRPEQGLEWIGRIDPANGNTKYDPKFQGKATITADTSANTAYLQLSSLTSEDTAVYYCSRGPPGGIGEYIYAMDYWGQGTSVTVSS
VL: QIVLTQSPAIMSASLGERVTMTCTASSSVSSSYLHWYQQKPGSSPKLWIYSTSNLASGVPARFSGSGSGTSYSLTISSMEAEDAATYYCHQYHRSPPTFGGGTKLEI
notes: as for B1
As to B2, the EC50 was determined as 0.767 nM in experiment [1], 2.93 nM in experiment [2] and 0.029 nM in experiment [4]. This molecule also yielded a positive % in experiment [3] of 80.2%.

B3: monoclonal antibody 5C10 (antibody, V domains shown)
VH: QVQLKESGPGLVAPSQNLSITCTVSGFSLSNYDISWIRQPPGKGLEWLGVIWTGGATNYNSAFMSRLSISRDNSKSQVFLKMNSLQTDDTAIYYCVRDSNYRYDEPFTYWGQGTLVTVSA
VL: DILLTQSPAILSVSPGERVSLSCRASQSIGTNIHWFQQRTNGSPRLLIKYASESISGIPSRFSGSGSGTDFTLSINSVESEDIADYYCQQSNSWPYTFGGGTKLEI
notes: Murine antibody purified from hybridoma supernatant; also called antibody of hybridoma cell strain LT005
As for B3, the EC50 turned out to be 0.785 nM in experiment [1], 2.3 nM in experiment [2], 0.817 nM in experiment [5] and 0.031 nM in experiment [4]. Moreover, in experiment [3], the positive % was 100%.

The EC50 is the concentration needed to bring the measured effect to its halfway point.
